Each binder was assayed against T1, FcγRIIa R (human, UniProt P12318 34-217) (assay: SPR Biacore; vs GpH7-A5/GpH7-B3/GpL16-k0 =100).
T1 construct: extracellular domain; also called FcgRIIa R type; 2aR
T1 sequence (looked up): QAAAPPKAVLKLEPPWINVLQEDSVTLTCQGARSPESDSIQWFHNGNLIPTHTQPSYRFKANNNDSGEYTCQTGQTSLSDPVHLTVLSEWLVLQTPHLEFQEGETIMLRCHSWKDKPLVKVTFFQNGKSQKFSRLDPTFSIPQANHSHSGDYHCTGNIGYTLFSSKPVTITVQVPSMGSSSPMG

| Binder | He/Con_2aR |
| --- | --- |
| GpH7-A5/GpH7-B3 variant E333_09D/GpL16-k0 (antibody, human IgG1, kappa, also called He Ab E333_09D) heavy 1: not shown heavy 2: not shown light: DIVMTQSPLSLPVTPGEPASISCQASESLVHSNRNTYLHWYLQKPGQSPQLLIYKVSNRFSGVPDRFSGSGSGTDFTLKISRVEAEDVGVYYCSQNTHVPPTFGQGTKVEIERTVAAPSVFIFPPSDEQLKSGTASVVCLLNNFYPREAKVQWKVDNALQSGNSQESVTEQDSKDSTYSLSSTLTLSKADYEKHKVYACEVTHQGLSSPVTKSFNRGEC | 103 % of control |
| GpH7-A5/GpH7-B3 variant G237_09D/GpL16-k0 (antibody, human IgG1, kappa, also called He Ab G237_09D) heavy 1: not shown heavy 2: not shown light: DIVMTQSPLSLPVTPGEPASISCQASESLVHSNRNTYLHWYLQKPGQSPQLLIYKVSNRFSGVPDRFSGSGSGTDFTLKISRVEAEDVGVYYCSQNTHVPPTFGQGTKVEIERTVAAPSVFIFPPSDEQLKSGTASVVCLLNNFYPREAKVQWKVDNALQSGNSQESVTEQDSKDSTYSLSSTLTLSKADYEKHKVYACEVTHQGLSSPVTKSFNRGEC | 156 % of control |
| GpH7-A5/GpH7-B3 variant A330_15Y/GpL16-k0 (antibody, human IgG1, kappa, also called He Ab A330_15Y) heavy 1: not shown heavy 2: not shown light: DIVMTQSPLSLPVTPGEPASISCQASESLVHSNRNTYLHWYLQKPGQSPQLLIYKVSNRFSGVPDRFSGSGSGTDFTLKISRVEAEDVGVYYCSQNTHVPPTFGQGTKVEIERTVAAPSVFIFPPSDEQLKSGTASVVCLLNNFYPREAKVQWKVDNALQSGNSQESVTEQDSKDSTYSLSSTLTLSKADYEKHKVYACEVTHQGLSSPVTKSFNRGEC | 102 % of control |
| GpH7-A5/GpH7-B3 variant A327_10E/GpL16-k0 (antibody, human IgG1, kappa, also called He Ab A327_10E) heavy 1: not shown heavy 2: not shown light: DIVMTQSPLSLPVTPGEPASISCQASESLVHSNRNTYLHWYLQKPGQSPQLLIYKVSNRFSGVPDRFSGSGSGTDFTLKISRVEAEDVGVYYCSQNTHVPPTFGQGTKVEIERTVAAPSVFIFPPSDEQLKSGTASVVCLLNNFYPREAKVQWKVDNALQSGNSQESVTEQDSKDSTYSLSSTLTLSKADYEKHKVYACEVTHQGLSSPVTKSFNRGEC | 110 % of control |
| GpH7-A5/GpH7-B3 variant E333_07I/GpL16-k0 (antibody, human IgG1, kappa, also called He Ab E333_07I) heavy 1: not shown heavy 2: not shown light: DIVMTQSPLSLPVTPGEPASISCQASESLVHSNRNTYLHWYLQKPGQSPQLLIYKVSNRFSGVPDRFSGSGSGTDFTLKISRVEAEDVGVYYCSQNTHVPPTFGQGTKVEIERTVAAPSVFIFPPSDEQLKSGTASVVCLLNNFYPREAKVQWKVDNALQSGNSQESVTEQDSKDSTYSLSSTLTLSKADYEKHKVYACEVTHQGLSSPVTKSFNRGEC | 104 % of control |
| GpH7-A5/GpH7-B3 variant A330_12R/GpL16-k0 (antibody, human IgG1, kappa, also called He Ab A330_12R) heavy 1: not shown heavy 2: not shown light: DIVMTQSPLSLPVTPGEPASISCQASESLVHSNRNTYLHWYLQKPGQSPQLLIYKVSNRFSGVPDRFSGSGSGTDFTLKISRVEAEDVGVYYCSQNTHVPPTFGQGTKVEIERTVAAPSVFIFPPSDEQLKSGTASVVCLLNNFYPREAKVQWKVDNALQSGNSQESVTEQDSKDSTYSLSSTLTLSKADYEKHKVYACEVTHQGLSSPVTKSFNRGEC | 104 % of control |
| GpH7-A5/GpH7-B3 variant A327_09D/GpL16-k0 (antibody, human IgG1, kappa, also called He Ab A327_09D) heavy 1: not shown heavy 2: not shown light: DIVMTQSPLSLPVTPGEPASISCQASESLVHSNRNTYLHWYLQKPGQSPQLLIYKVSNRFSGVPDRFSGSGSGTDFTLKISRVEAEDVGVYYCSQNTHVPPTFGQGTKVEIERTVAAPSVFIFPPSDEQLKSGTASVVCLLNNFYPREAKVQWKVDNALQSGNSQESVTEQDSKDSTYSLSSTLTLSKADYEKHKVYACEVTHQGLSSPVTKSFNRGEC | 124 % of control |
| GpH7-A5/GpH7-B3 variant G237_02A/GpL16-k0 (antibody, human IgG1, kappa, also called He Ab G237_02A) heavy 1: not shown heavy 2: not shown light: DIVMTQSPLSLPVTPGEPASISCQASESLVHSNRNTYLHWYLQKPGQSPQLLIYKVSNRFSGVPDRFSGSGSGTDFTLKISRVEAEDVGVYYCSQNTHVPPTFGQGTKVEIERTVAAPSVFIFPPSDEQLKSGTASVVCLLNNFYPREAKVQWKVDNALQSGNSQESVTEQDSKDSTYSLSSTLTLSKADYEKHKVYACEVTHQGLSSPVTKSFNRGEC | 126 % of control |
| GpH7-A5/GpH7-B3 variant A330_19Q/GpL16-k0 (antibody, human IgG1, kappa, also called He Ab A330_19Q) heavy 1: not shown heavy 2: not shown light: DIVMTQSPLSLPVTPGEPASISCQASESLVHSNRNTYLHWYLQKPGQSPQLLIYKVSNRFSGVPDRFSGSGSGTDFTLKISRVEAEDVGVYYCSQNTHVPPTFGQGTKVEIERTVAAPSVFIFPPSDEQLKSGTASVVCLLNNFYPREAKVQWKVDNALQSGNSQESVTEQDSKDSTYSLSSTLTLSKADYEKHKVYACEVTHQGLSSPVTKSFNRGEC | 104 % of control |
| GpH7-A5/GpH7-B3 variant G237_08L/GpL16-k0 (antibody, human IgG1, kappa, also called He Ab G237_08L) heavy 1: not shown heavy 2: not shown light: DIVMTQSPLSLPVTPGEPASISCQASESLVHSNRNTYLHWYLQKPGQSPQLLIYKVSNRFSGVPDRFSGSGSGTDFTLKISRVEAEDVGVYYCSQNTHVPPTFGQGTKVEIERTVAAPSVFIFPPSDEQLKSGTASVVCLLNNFYPREAKVQWKVDNALQSGNSQESVTEQDSKDSTYSLSSTLTLSKADYEKHKVYACEVTHQGLSSPVTKSFNRGEC | 133 % of control |
| GpH7-A5/GpH7-B3 variant E333_05P/GpL16-k0 (antibody, human IgG1, kappa, also called He Ab E333_05P) heavy 1: not shown heavy 2: not shown light: DIVMTQSPLSLPVTPGEPASISCQASESLVHSNRNTYLHWYLQKPGQSPQLLIYKVSNRFSGVPDRFSGSGSGTDFTLKISRVEAEDVGVYYCSQNTHVPPTFGQGTKVEIERTVAAPSVFIFPPSDEQLKSGTASVVCLLNNFYPREAKVQWKVDNALQSGNSQESVTEQDSKDSTYSLSSTLTLSKADYEKHKVYACEVTHQGLSSPVTKSFNRGEC | 105 % of control |

From patent US20180155451A1 (published 2018)
